Here are results for one molecule from article doi:10.1101/2025.08.22.671816 (bioRxiv, 2025).

Where no end group is shown, it is not given here.

The experiment deals with T1, mCerulean-tagged GIPC (human, UniProt O14908 1-333).
T1 sequence (looked up): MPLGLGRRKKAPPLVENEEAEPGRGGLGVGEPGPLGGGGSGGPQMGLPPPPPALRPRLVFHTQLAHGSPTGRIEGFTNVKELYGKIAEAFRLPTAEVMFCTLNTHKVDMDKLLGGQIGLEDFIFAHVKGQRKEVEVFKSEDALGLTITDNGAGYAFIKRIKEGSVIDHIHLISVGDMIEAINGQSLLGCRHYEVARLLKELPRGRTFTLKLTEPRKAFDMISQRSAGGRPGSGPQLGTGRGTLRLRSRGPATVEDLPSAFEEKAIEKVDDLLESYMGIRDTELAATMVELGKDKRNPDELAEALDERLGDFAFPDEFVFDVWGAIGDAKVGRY
As to the kind of experiment: FRET or BRET.

B1: mCitrine-tagged GIPR C-tail, wild-type (domain or fragment, human, UniProt P48546 422-466, looked up)
chain: QLPERAFRALPSGSGPGEVPTSRGLSSGTLPGPGNEASRELESYC
modifications: also: mCitrine-tagged
In the case of B1, the binding result was “binds”.
